Groups on a side chain read outwards from the residue. Primed or numbered codes have the meaning given here. No end group written: not given here. *: point of attachment. Biotin = O=C1N[C@H]2[C@H](CS[C@H]2CCCCC(=O)*)N1; PEG2′ = not defined here
B1: biotinylated N-terminal cysteine-containing neoepitope peptide (peptide)
peptide: C([Maleimide-PEG2′-Biotin])TEEISEVKM
notes: also called biotinylated peptide; biotynylated peptide
B4: anti-neoepitope antibody 4G4 (antibody, IgG2a, V domains shown)
VH: EMKLVESGGGLVEPGGSLKLSCAASGFTFSNYAMSWVRQTPDKRLEWVASIGRGGSTFYPDSVKGRFTISRDRVRNILYLQMNSLRSEDTAIYYCRVIYSQSISFDYWGQGTTLTVSS
VL: not shown
notes: It was biotinylated when used as capture antibody in the sandwich ELISA; also called anti-sAPP β monoclonal antibody (4G4)

Key:
[1] = biological target: B4; experiment: competitive ELISA: 4G4 captured on anti-mouse IgG plate, unlabelled immunogen peptide (SEQ ID No. 2) varied against the biotinylated neoepitope peptide with streptavidin-HRP
Procedure: 10 μl of the antibody solution containing 4G4 and 10 μl of the immunogen peptide (SEQ ID No.:2) or the long peptide ([…] SEQ ID No. 3 SIGMA) or human sAPPβ (MESO SCALE DISCOVERY) or human sAPPα (MESO SCALE DISCOVERY) and 10 μl of 0.04 ng the biotynylated peptide and 2 ng streptavidin-HRP in buffer A were placed into the above anti-mouse IgG-immobilized plates and incubated overnight at 4° C. The plates were washed three times and 25 μl of TMB substrate solution (DAKO) was added and incubated for 30 min. The reaction was finally stopped by addition of 25 μl of 0.05NH2SO4, and optical absorbance was measured at wavelength of 450 nm (FIG. 3).

[2] = biological target: T1, anti-internal structure antibody 5H10; experiment: competitive ELISA of 5H10, unlabelled peptide varied against the biotinylated internal structural peptide
T1 construct: also called internal antibody 5H10; internal structural antibody
Procedure: Reactivity of the antibody, 5H10 to the four fragment peptides 1˜4 (SEQ ID No.: 8, 9, 10, 11) was evaluated by competitive ELISA in the same method as Example 1.

[3] = biological target: B1; experiment: screening ELISA: hybridoma supernatant on anti-mouse IgG plate, biotinylated peptide and streptavidin-HRP

T1 sequence (VH, as listed by the source, chain 1 of 2): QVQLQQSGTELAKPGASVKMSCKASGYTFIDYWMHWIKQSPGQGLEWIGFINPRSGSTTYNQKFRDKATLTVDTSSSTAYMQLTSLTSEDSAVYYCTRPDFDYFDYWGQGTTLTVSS
T1 sequence (VL, as listed by the source, chain 2 of 2): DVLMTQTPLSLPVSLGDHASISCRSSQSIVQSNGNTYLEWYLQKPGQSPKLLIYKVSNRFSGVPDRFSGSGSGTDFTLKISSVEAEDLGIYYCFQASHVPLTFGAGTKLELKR

B1
binding result [1]: binds

B2: Fragment 3 (peptide)
peptide: RPAADRGLTTRP
notes: partial peptide of the 5H10 immunogen; also called fragment peptide 3
binding result [2]: no binding (tested: about 150 nM)

B3: Immunogen peptide (peptide)
peptide: DSVPANTENEVEPVDARPAADRGLTTRPGSGLTNC
notes: also called C-terminal cysteine-containing internal structural peptide; Immunogen 2 peptide
binding result [2]: binds

B4
binding result [3]: binds

B5: Fragment 1 (peptide)
peptide: DSVPANTENEVE
notes: partial peptide of the 5H10 immunogen; also called fragment peptide 1
binding result [2]: no binding (tested: about 150 nM)

B6: Fragment 2 (peptide)
peptide: NEVEPVDARPAA
notes: partial peptide of the 5H10 immunogen; also called fragment peptide 2
binding result [2]: no binding (tested: about 150 nM)

From US20150111231A1 (SHIONOGI, published 2015)
